According to paper PMC5014597:
Where two headings read alike, the source gives them in different places.

Key:
[1] = biological target: TDP-43 C-terminal domain (residues 267-414) M337V (human) (UniProt Q13148)
[2] = biological target: TDP-43 C-terminal domain (residues 267-414), wild type (human) (UniProt Q13148); assay: 15N CPMG relaxation dispersion NMR
[3] = biological target: TDP-43 C-terminal domain (residues 267-414), wild type (human) (UniProt Q13148); assay: 15N CPMG relaxation dispersion NMR; remark: listed apart in the source

Row | decrease of turbidity of 20 µM CTD in 150 mM NaCl against wild type [1] [%] | kex (kon + koff, global exchange rate) [2] [s⁻¹] | koff [2] [s⁻¹] | kex (kon + koff, global exchange rate) [3] [s⁻¹] | koff [3] [s⁻¹] | Substance
1 | 50 | – | – | – | – | TDP-43 C-terminal domain (residues 267-414) M337V (from UniProt Q13148 267-414) (domain or fragment)
2 | – | 1200 | 1100 | 1000 | 970 | TDP-43 C-terminal domain (residues 267-414), wild type (from UniProt Q13148 267-414) (domain or fragment)
